# Data from article PMC12512739.
# Experiments:
# [1] = target: Porcine circovirus type 2 (PCV2) virus particles (capsid of Cap) (porcine circovirus type 2 (genotype 2d, strain ChenZ-2-1))
# [2] = target: PCV2 virus-like particles (VLPs) assembled from the capsid protein (Cap) (porcine circovirus type 2 (genotype 2d, strain ChenZ-2-1))
# [3] = target: Annexin A2 (endogenous, PK-15 cells) (pig (endogenous in PK-15)) (UniProt P19620)
# [4] = target: Annexin A2 (endogenous, PK-15 cells) (pig (endogenous in PK-15)) (UniProt P19620); remark: listed apart in the source
# Sequence of UniProt P19620 (P19620 whole entry): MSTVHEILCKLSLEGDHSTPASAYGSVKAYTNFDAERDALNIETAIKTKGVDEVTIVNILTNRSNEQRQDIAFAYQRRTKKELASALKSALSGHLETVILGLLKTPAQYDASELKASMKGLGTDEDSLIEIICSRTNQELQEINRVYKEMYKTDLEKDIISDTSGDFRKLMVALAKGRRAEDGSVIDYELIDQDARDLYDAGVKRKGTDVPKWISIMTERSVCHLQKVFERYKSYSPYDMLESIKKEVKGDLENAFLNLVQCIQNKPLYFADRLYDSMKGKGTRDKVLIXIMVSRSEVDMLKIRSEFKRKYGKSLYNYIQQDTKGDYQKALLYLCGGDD
Substance,inhibition of PCV2 attachment to PK-15 cells at 4 °C (bound virus by qPCR) after preincubation of PCV2 with rANXA2 (20 μg/mL); blocks PCV2 and cell surface ANXA2 [1] [%],"decrease of PCV2 VLP binding to PK-15 cells at 4 °C (immunofluorescence with anti-Cap antibody, fluorescence intensity) after preincubation of VLPs with rANXA2 (20 μg/mL) [2] [%]",reduction of PCV2 particles attached to PK-15 cells at 4 °C (qPCR) after pretreatment of the cells with ANXA2-specific antibody (30 μg/mL) [3] [%],"decrease in PCV2 infectivity by IFA (Cap fluorescence) in PK-15 cells pretreated with ANXA2-specific polyclonal antibody, against control cells [4] [%]",reduction of viral genome copies in PK-15 cells at 36 hpi (qPCR) after pretreatment of the cells with anti-ANXA2 polyclonal antibody at 10 and 30 μg/mL [4] [%]
recombinant soluble full-length porcine ANXA2 with an N-terminal His-tag (pET-28a(+)) (from UniProt P19620 1-339) (natural protein),32.7,19.4,–,–,–
Porcine circovirus type 2 (PCV2) virus particles (capsid of Cap) (complex),–,–,25.2,30,42.7
